Data as given in US20210340209A1 (IMMUNE TARGETING, published 2021).

Target: T1, human IL-2 mutant V1 (human, UniProt P60568 21-153)
T1 construct: Mutein found by yeast surface display screen; the ELISA format (any tag or Fc) is not described; also called IL-2 mutein
T1 chain: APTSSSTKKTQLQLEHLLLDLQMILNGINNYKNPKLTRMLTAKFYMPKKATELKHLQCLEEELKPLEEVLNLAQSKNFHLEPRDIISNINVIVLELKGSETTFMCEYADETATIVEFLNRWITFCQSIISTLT
Assay: ELISA

fold stronger binding than to IL-2 WT: ~20 times
B1: human IL-2R beta (receptor)
chain: AVNGTSQFTCFYNSRANISCVWSQDGALQDTSCQVHAWPDRRRWNQTCELLPVSQASWACNLILGAPDSQKLTTVDIVTLRVLCREGVRWRVMAIQDFKPFENLRLMAPISLQVVHVETHRCNISWEISQASHYFERHLEFEARTLSPGHTWEEAPLLTLKQKQEWICLETLTPDTQYEFQVRVKPLQGEFTTWSPWSQPLAFRTKPAALGKDT
notes: Soluble IL-2R beta reagent, titrated on yeast and used in ELISA; also called IL-2 receptor beta
